# According to patent US20160031967A1 (Affibody, published 2016):
# Experiments:
# [1] = biological target: T1, human FcRn (Biorbyt, cat. no. orb84388) (human, UniProt P55899 24-297; P61769 21-119, limits assumed); assay: ELISA titration of biotinylated human FcRn, pH 6.0
# T1 construct: Bought protein; Biotinylated in AlphaLISA and ELISA; also called biotinylated human FcRn
# Method: (§1) ELISA KD analysis of FcRn binding Z variants: A selection of FcRn binders was subjected to an analysis of the response against a dilution series of biotinylated human FcRn using ELISA at both pH 6.0 and pH 7.4 as described above. […] As a background control, all Z variants were also assayed with no target protein added. […] Data were analyzed using GraphPad Prism 5 and non-linear regression and KD values (the half maximal effective concentration) were calculated.
# (§2) Periplasm samples were incubated with a serial dilution of biotinylated human FcRn.
# [2] = biological target: T1, human FcRn (Biorbyt, cat. no. orb84388); assay: ELISA titration of biotinylated human FcRn, pH 7.4
# Method: as §1, §2
# T1 sequence (P55899 24-297 limits assumed, chain 1 of 2): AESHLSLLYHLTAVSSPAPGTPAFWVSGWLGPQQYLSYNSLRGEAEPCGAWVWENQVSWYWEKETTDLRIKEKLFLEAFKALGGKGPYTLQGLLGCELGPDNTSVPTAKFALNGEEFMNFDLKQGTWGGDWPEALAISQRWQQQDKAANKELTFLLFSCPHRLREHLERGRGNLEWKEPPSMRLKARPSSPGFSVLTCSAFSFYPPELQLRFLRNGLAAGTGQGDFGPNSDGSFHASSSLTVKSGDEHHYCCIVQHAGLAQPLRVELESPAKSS
# T1 sequence (P61769 21-119 limits assumed, chain 2 of 2): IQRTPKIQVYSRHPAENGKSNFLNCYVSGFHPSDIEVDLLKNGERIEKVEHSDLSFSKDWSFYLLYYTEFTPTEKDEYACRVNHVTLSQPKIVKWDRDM
Binder,Kd [1] [nM],Kd [2] [nM]
"Z13586-ABD fusion (designed binder, domain: GA3; periplasmic Z-ABD fusion) AQHDEALEVDAKYAKELKDAGHEIRWLPNLTFDQRVAFIHKLRDDPSQSSELLSEAKKLNDSQAPKVDYVLAEAKVLANRELDKYGVSDYYKNLINNAKTVEGVKALIDEILAALPYVPG",1.2,2.3
"Z13783-ABD fusion (designed binder, domain: GA3; periplasmic Z-ABD fusion) AQHDEALEVDAKYAKEIEQAGHEIRWLPNLTFDQRVAFIHKLRDDPSQSSELLSEAKKLNDSQAPKVDYVLAEAKVLANRELDKYGVSDYYKNLINNAKTVEGVKALIDEILAALPYVPG",1.4,2.2
